Laboratory results published in US6723697B2, “IL-16 antagonists” (Research Corporation Technologies, Inc., priority 1999, dated 2004).

Legend:
[1] = tested on: anti-CD4 antibody (OKT4); experiment: OKT4-induced migration of T-cells; type: cell-based; settings: OKT4 1 μg/ml, co-incubation
[2] = target: T1, HIV-1 gp120 (Human immunodeficiency virus type 1 group M subtype B, UniProt P04578); settings: gp120 5 μg/ml, co-incubation
[3] = target: T2, IL-16 (Mus musculus, UniProt O54824); experiment: IL-16-induced migration of human T-cells; type: cell-based; settings: co-incubation of IL-16 and peptide
T2 construct: polyhistidine fusion protein containing the 119 C-terminal residues encoded by the previously reported murine cDNA; polyhistidine (cleaved yes); made in house
T2 sequence (O54824 1204-1322): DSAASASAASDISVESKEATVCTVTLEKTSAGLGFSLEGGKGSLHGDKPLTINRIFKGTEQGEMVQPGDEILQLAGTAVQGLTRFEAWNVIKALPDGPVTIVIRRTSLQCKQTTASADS

[4] = target: T3, rIL-16 / GST-murine D3D4 fusion protein (Mus musculus, UniProt O54824); experiment: in vitro binding of 35S-labeled murine rIL-16 to GST-murine D3D4 fusion protein; settings: each peptide 10^-5 M, 10 ug/ml
T3 construct: murine IL-16 cDNA construct in pET-16b expressing the C-terminal 119 amino acids of IL-16; polyhistidine (pET-16b vector); made in house; host or cells: IL-16: coupled in vitro transcription-translation (TNT T7, Promega); GST-D3D4: E. coli, vector pGEX-5X.1
T3 sequence (O54824 1205-1322 limits assumed): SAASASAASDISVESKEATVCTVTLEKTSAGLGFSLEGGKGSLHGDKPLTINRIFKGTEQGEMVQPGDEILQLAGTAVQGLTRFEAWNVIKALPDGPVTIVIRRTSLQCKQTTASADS
Procedure: Complexes were isolated by centrifugation, then bound rIL-16 was released by boiling in SDS-PAGE buffer, resolved by SDS-PAGE, and detected by autoradiography. Specificity of the interaction between rIL-16 and D3D4 was assessed by competition with an excess of unlabeled rIL-16. ^35S-labeled rIL-16 incubated with GST (lane 1); ^35S-labeled rIL-16 incubated with GST-D3D4 (lane 2); ^35S-labeled rIL-16 plus excess unlabelled rIL-16 incubated with GST-D3D4 (lane 3); ^35S-labeled rIL-16 plus10 ug/ml peptide A (lane 4); ^35S-labeled rIL-16 plus 10 ug/ml peptide B (lane 5); ^35S-labeled rIL-16 plus 10 ug/ml peptide C (lane 6); ); ^35S-labeled rIL-16 plus 10 ug/ml peptide A and peptide B (lane 7). The arrow indicates the position of IL-16 on the gel. The identity of this band was re-confirmed by immunoblotting with anti-IL-16 antibody.
Radiolabeled murine IL-16 was prepared by in vitro translation and transcription (TNT T7, Promega) of a murine IL-16 cDNA construct in pET-16b expressing the C-terminal 119 amino acids of IL-16. Each coupled transcription-translation reaction was conducted in medium supplemented with [^35S]methionine according to the manufacturer's instructions.
A glutathione-S-transferase (GST)-murine D3D4 fusion protein was produced by subcloning the murine D3D4 domain cDNA sequences encoding the CD4 protein open reading frame from Phe^182 to Phe^372 into pGEX-5X.1 (Pharmacia). The GST-D3D4 fusion protein was purified according to the Pharmacia GST-fusion protein purification protocol using glutathione-conjugated Sepharose 4B beads in the presence of 2 mM dTT. […]
To investigate IL-16 interaction with the D3D4 of CD4, the GST-D3D4 fusion protein, or GST alone, was bound to the glutathione-conjugated Sepharose 4B beads. […] The GST-D3D4 or GST proteins were released from the beads by boiling in SDS gel loading buffer, and the supernatant was analyzed by 12% SDS-polyacrylamide gel electrophoresis (SDS-PAGE). The presence of ^35S-labeled mrIL16 was detected by autoradiography of the dried gel. […]

[5] = target: T4, rIL-16 (Mus musculus, UniProt O54824); experiment: IL-2R (CD25) induction on rIL-16-stimulated murine splenocytes, flow cytometry; type: cell-based; settings: for % IL-2R+ CELLS: IL-16 + peptide, concentration not given (10^-6 M or 10^-7 M)
T4 construct: polyhistidine fusion protein containing the 119 C-terminal residues encoded by the previously reported murine cDNA; polyhistidine (cleaved yes); made in house; host or cells: Escherichia coli strain HMS 174, vector pET16b
T4 sequence (O54824 1204-1322): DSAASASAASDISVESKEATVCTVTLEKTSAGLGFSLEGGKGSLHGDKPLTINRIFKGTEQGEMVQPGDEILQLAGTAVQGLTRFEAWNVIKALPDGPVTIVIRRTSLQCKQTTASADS
Procedure: Induction of IL-2R (CD25) on rIL-16-stimulated murine splenocytes was detected by staining with FITC-conjugated anti-mouse IL-2R Ab (PharMingen). Cells were fixed with 10% formalin and stored at 4° C. in the dark before analysis with a Becton Dickinson FACScan 440 flow cytometer. The % IL-2R^+ cells was determined by subtracting the % isotype control positive from the total % positive events.
Peptides A (SEQ ID NO:15) and C (SEQ ID NO:19) were inhibitory at 10^−7 M, but not 10^−6 M. The negative control peptide D (SEQ ID NO:20) (10^−6 M) had no effect on rIL-16-stimulated IL-2R expression.
Murine splenocytes were incubated in control buffer, rIL-16 alone, or rIL-16 plus the indicated peptide. IL-2R expression was determined by flow cytometry using FITC-conjugated anti-IL-2R antibody. The % IL-2R^+ was determined by subtracting the FITC-conjugated isotype control antibody binding from the FITC-conjugated anti-IL-2R antibody binding. Isotype control antibody binding ranged from 1% to 4%.

[6] = target: T5, murine rIL-16 (Mus musculus, UniProt O54824); experiment: murine rIL-16-stimulated murine splenocyte migration, modified Boyden chamber; type: cell-based; settings: rIL-16 10^-9 M
T5 construct: polyhistidine fusion protein containing the 119 C-terminal residues encoded by the previously reported murine cDNA; polyhistidine (cleaved yes); made in house; host or cells: Escherichia coli strain HMS 174, vector pET16b
T5 sequence (O54824 1204-1322): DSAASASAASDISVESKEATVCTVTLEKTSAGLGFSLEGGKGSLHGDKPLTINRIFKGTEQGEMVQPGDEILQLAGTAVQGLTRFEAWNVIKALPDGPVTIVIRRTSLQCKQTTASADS
Procedure: (§1) Cell migration was assessed using a modified Boyden chamber. […] Cell migration is expressed as the mean % control migration.
(§2) Results from multiple experiments were analyzed using Student's t test for paired variables, and Tukey's test for multiple variables. A P value<0.05 was considered significant.
Peptide B (aa 341-352) includes the sequence WQCLLS (residues 344-349, SEQ ID NO:4) which is 100% conserved in all the species examined. Peptide A (aa 327-338) and peptide C (aa 351-362) correspond to the N-terminal and C-terminal flanks of peptide B, respectively. A random scrambled 12-residue peptide (LSKQKMVSREGT) designated peptide D (SEQ ID NO:20) was used a negative control for nonspecific effects of peptide administration on splenocyte motility. Criteria for the design of peptide D included overall hydrophilicity, neutral charge and no cysteine residues (to prevent possible dimer formation).
Murine spleens were harvested from healthy 8-week male BALB/c mice (Jackson Laboratory). Splenocytes were isolated by grinding spleens between fiysted slides in M199 culture medium (M. A. Bioproducts), supplemented with 0.4% bovine serum albumin, 22 mM HEPES buffer, 100 with U/ml of penicillin, 100 μg/ml streptomycin (M199-HPS). Cells were washed and erytbrocytes were lysed in Gey's solution. Splenocytes were washed twice in M199, and resuspended to a final concentration of 2×10^6 cells/ml in RPMI1640 medium (BioWhittaker) supplemented with 10% FBS, 100 U/ml of penicillin and 100 μg/ml of streptomycin. By flow cytometry, 25% of the isolated splenocytes within the lymphocyte-cloud were CD4^+.
Recombinant murine IL-16 was produced in Escherichia coli (strain HMS 174; Novagen) as a polyhistidine fusion protein containing the 119 C-terminal residues encoded by the previously reported murine cDNA (Keane et al., (1998) J. Immunol. 160: 5945-5954), using the bacterial expression vector pET16b (Novagen). The recombinant product corresponds to the secreted form of natural murine IL-16 following cleavage by caspase-3 (Zhang et al. (1998) J. Biol. Chem. 273:1144-1149). The rIL-16 was purified by metal chelation chromatography, and the polyhistidine tag was cleaved with factor Xa (New England Biolabs).

[7] = target: T1, HIV-1 gp120; settings: human CD4 point mutant
Procedure: Cell migration was assessed using a modified Boyden chamber. (Center, et al., (1982) J. Immunol. 128:2563-2568; Cruikshank, et al., (1982) J. Immunol. 128:2569-2574). […] For blocking experiments, 10^−9 M murine rIL-16 with various concentrations of oligopeptides were mixed and placed in the lower well. The upper and lower wells were separated by 8 μm pore size nitrocellulose filter membrane (Neuro Probe). Following incubation (3 h, 37° C.), the membranes were removed, stained with hematoxylin, and dehydrated. Cell migration was quantified by counting the number of cells migrating beyond a depth of 40 μm. Counts were compared with control cells exposed to M199-HPS alone, which was normalized to 100%. Cell migration is expressed as the mean % control migration. All samples were tested in duplicate, with five high power fields counted in each duplicate.

[8] = target: T5, murine rIL-16; experiment: IL-16-stimulated T-lymphocyte migration, human CD4 D4 point mutants; type: cell-based; settings: human CD4 D4 wild type or point mutant, rIL-16 10^-9 M
Procedure: Point mutations at Leu 348 and Leu 349 in human CD4 were prepared as follows.
Initially 100 ng of wild type human CD4 cDNA (Richard Axel, Columbia University, N.Y.) contained within the mammalian expression vector pcDNA3.1(−) (Invitrogen, Carlsbad, Calif.) was subjected to the polymerase chain reaction (PCR) in the presence of 125 ng of each set of primer pairs. PCR conditions were as follows:
The time for the elongation step varied according to the relationship of 2 minutes per kilobase of plasmid DNA length. The product was then subjected to restriction digestion with the enzyme Dpn for 1 h. at 37° C. Dpn is specific for methylated nucleotides and therefore will only cut the original wide type CD4-plasmid DNA. The transformation reaction required the addition of 1 μl of the digest to 50 μl of Epicurean Blue Eschericia coli which was incubated on ice for 30 min. and finally heat shocked 42° C., 45 sec to seal the supercompent bacteria. The resultant bacteria culture was selected on ampicillin plates and sequenced to confirm mutagenesis.
as §1, §2
(FIGS. 10A and 10B). […] (FIGS. 11A and 11B).

Which “effect on anti-CD4 antibody OKT4-induced migration” value [1] does the source give for “CLLS (OTHER INFORMATION: Description of Artificial Sequence:IL-16 antagonist peptide) [aa 347-350 of human CD4 D4]” here?
Its value is “unaffected”.

And the “effect on HIV-1 gp120-induced migration” value [2]?
The value was “unaffected”.

And the “IL-16-induced migration of human T-cells blocked” value [3]?
Its value is “approximately 90%”.

Which “IL-16 binding to GST-D3D4 in the presence of peptide” value [4] does the source give for “VSEEQKVVQVVA (OTHER INFORMATION: Description of Artificial Sequence:IL-16 antagonist peptide) [peptide A, 12-residue peptide, aa 327-338 of mouse CD4 D4]” here?
The value was “reduced to background”.

And the “% IL-2R+ CELLS” value ([5]; first line of the peptide's pair)?
Its value is 21%.

And the “% IL-2R+ CELLS” value ([5]; second line of the peptide's pair)?
Its value is 37%.

What about the “inhibition of IL-16-stimulated induction of IL-2R” value ([5]; peptide 10^-7 M) of the same molecule?
The value was “inhibitory”.

And the “inhibition of rIL-16-induced splenocyte migration” value ([6]; peptide 10^-6 M)?
Its value is “inhibited”.

What about the “IL-16-inhibitory activity (block of murine rIL-16-stimulated murine splenocyte migration)” value ([6]; peptide concentration not given) of the same molecule?
The value was “IL-16-inhibitory activity”.

B1: NLTCEVWGPTSPKLMLSLKLENKEAKVSKREKAVWVLNPEAGMWNCLLSDSGQVLLESNIKVLPTWSTPVQPM (peptide)
chain: NLTCEVWGPTSPKLMLSLKLENKEAKVSKREKAVWVLNPEAGMWNCLLSDSGQVLLESNIKVLPTWSTPVQPM
modifications: OTHER INFORMATION: Description of Artificial Sequence:IL-16 antagonist peptide
notes: human CD4 D4 with glutamine 346 to asparagine
How did the “inhibition of HIV-1 gp120-stimulated T-lymphocytes” value [7] turn out when B1 was run?
Its value is “no loss in inhibition”.

What about the “inhibition of IL-16-stimulated T-lymphocyte migration” value [8] of the same molecule?
Its value is “IL-16-inhibitory activity”.

What about the “inhibition of IL-16-stimulated T-lymphocyte migration” value ([8]; listed as human CD4 (Q346→N)) of the same molecule?
Its value is “no loss in inhibition”.
